Results: patent US20220406376A1 (MacroGenics, published 2022)
Changes are numbered by the printed parent chain.

Columns and labels:
[1] = biological target: T1, CD137 on the surface of cells (activated human T cells; engineered CHO cells) (human, UniProt Q07011 24-255); assay: flow cytometry on activated pan T cells gated CD8+, anti-hFc APC MFI
T1 construct: whole, on cells; also called human CD137; cell surface expressed CD137
Procedure: Three antibodies were selected for further study. For such evaluations, purified pan T-cells (see above) were stimulated with anti-CD3/CD28 beads (cells:beads=1:1) for 72 hours in the presence of IL-2 (100 U/mL). 100 μL of activated T cells (1.0×10⁶ cells/mL) and 100 μL of serially diluted (5- or 10-fold dilutions) test article (antibody or bispecific diabody) was added to each well of microtiter assay plate(s), mixed and incubated at RT for 45 min. The cells were washed with FACS Buffer and secondary antibody (anti-human-Fc region-APC) was then added to each well; mixed and incubated at RT for 30 min. Cells were then washed FACS Buffer and T cell surface marker antibodies (anti-CD4 labeled with V510, and anti-CD8 labeled with FITC) were then added to each well; mixed and incubated at RT for 30 min. Cells were washed and resuspended in 100 μL FACS Buffer and analyzed by flow cytometry (BD LSR Fortessa or FACSCanto 11) for cell event collection. Data analysis were performed via FloJo v10.
Chimeric antibodies having human IgG1 Fc regions and murine VH/VL domains were generated (designated: chCD137 MAB-1, chCD137 MAB-2, chCD137 MAB-3, chCD137 MAB-4 and chCD137 MAB-5, respectively), and were tested for their ability to bind to activated CD8⁺ T cells.

[2] = biological target: T2, extracellular portion of human CD137 fused to a histidine-containing peptide (human, UniProt Q07011 24-186); assay: SPR (BIACORE); antibody captured on anti-human Fc; huCD137 25 and 100 nM; 1:1 Langmuir
T2 construct: extracellular domain; also called huCD137; His-tagged soluble human CD137
Procedure: Thus, an extracellular portion of human CD137 fused to a histidine-containing peptide (“huCD137”) was passed over a surface coated with immobilized antibody. Briefly, each test molecule was captured onto an F(ab)₂ goat-anti-human Fc-coated surface and then incubated in the presence of different concentrations (25 nM and 100 nM) of huCD137. The kinetics of binding were determined via BIACORE® analysis binding (normalized 1:1 Langmuir binding model).

[3] = biological target: T1, CD137 on the surface of cells …; assay: flow cytometry on activated pan T cells (donor D46433, CD8 PE), anti-hFc APC MFI
[4] = biological target: T1, CD137 on the surface of cells …; assay: flow cytometry on activated CD8+ T cells (donor D59788, CD8 FITC), anti-hFc APC MFI
[5] = biological target: T1, CD137 on the surface of cells …; assay: flow cytometry on activated pan T cells (donor D46433, CD8 PE), anti-hFc APC MFI; remark: listed apart in the source
[6] = biological target: T3, HER2/neu on the surface of target cells (N87, JIMT-1, MCF-7, MDA-MB231) (UniProt P04626 23-1255, limits assumed); assay: flow cytometry on N87 cells, anti-hFc APC MFI
T3 construct: whole, on cells

[7] = biological target: T4, 5T4 on the surface of target cells (JIMT-1, SKOV-3) (UniProt Q13641 32-420, limits assumed); assay: flow cytometry on JIMT-1 (5T4 hi) cells, anti-hFc APC MFI
T4 construct: whole, on cells
T4 sequence (looked up): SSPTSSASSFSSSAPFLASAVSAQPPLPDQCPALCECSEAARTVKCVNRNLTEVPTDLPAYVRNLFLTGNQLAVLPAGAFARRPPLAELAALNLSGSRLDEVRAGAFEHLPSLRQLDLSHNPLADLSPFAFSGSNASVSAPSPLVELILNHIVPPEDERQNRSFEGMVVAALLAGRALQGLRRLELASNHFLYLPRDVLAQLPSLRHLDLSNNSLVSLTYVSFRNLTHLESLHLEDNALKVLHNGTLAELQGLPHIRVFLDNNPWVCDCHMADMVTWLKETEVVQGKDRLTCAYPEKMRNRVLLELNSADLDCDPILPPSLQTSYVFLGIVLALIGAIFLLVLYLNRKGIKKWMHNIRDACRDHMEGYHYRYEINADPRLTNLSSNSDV

T1 sequence (Q07011 24-255, change not shown): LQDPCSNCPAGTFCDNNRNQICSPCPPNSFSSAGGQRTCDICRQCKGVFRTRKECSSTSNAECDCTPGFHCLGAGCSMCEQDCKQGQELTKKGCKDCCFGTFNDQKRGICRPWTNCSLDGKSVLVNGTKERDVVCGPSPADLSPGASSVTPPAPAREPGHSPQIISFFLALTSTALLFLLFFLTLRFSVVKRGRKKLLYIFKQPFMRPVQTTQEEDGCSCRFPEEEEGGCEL

B1: chCD137 MAB-3 (antibody, V domains shown)
VH: QVQLQQPGAELVRPGASVKLSCKASGYTFTSYWINWVKQRPGQGLEWIGNIYPSDSYTNYNQKFKDKATLTVDKSSSTAYMQLSSPTSEDSAVYYCTRDYGSSYSFDYWGQGTTLTVSS
VL: DIQMTQTTSSLSASLGDRVTISCRPSQDISNYLNWYQQKPDGTVKLLIYYTSRLRSGVPSRFSGSGSGTDYSLTISNLEQEDIATYFCQQGDTLPYTFGGGTKLEIK
EC50 (read off the curve) [1]: ~2 ng/mL
Kd [2]: 23 nM
koff [2]: 0.02 s⁻¹
kon [2]: 890000 M⁻¹ s⁻¹

B2: chCD137 MAB-4 (antibody, V domains shown)
VH: QVQLQQPGAELVRPGASVKLSCKASGYTFTSYWINWVKQRPGQGLEWIGNIYPSDSYTNYDQKFKDKATLTVDKSSSTAYMQLSSPTSEDSAVYYCTKSGEYGKIGYYAMDYWGQGTSVTVSS
VL: B1 VL with P25A, R55H, D92N
EC50 (read off the curve) [1]: ~20 ng/mL
Kd [2]: 6.1 nM
koff [2]: 0.00092 s⁻¹
kon [2]: 150000 M⁻¹ s⁻¹

B3: chCD137 MAB-5 (antibody, V domains shown)
VH: QVQLKESGPGLVAPSQSLSITCTVSGFSLTSYDISWIRQPPGKGLEWLGVVWTGGGTNYNSAFMSRLSISKDNSKSQVFLKMNSLQTDDTAIYYCERVDYWGQGTSVTVSS
VL: DVVMTQTPLSLPVSLGDQASISCRSSQSLVHSNGNTYLHWYLQKPGQSPKLLIYKVSNRFSGVPDRFSGSGSGTDFTLKISRVEAEDLGVYFCSQSTHVPWTFGGGTKLEIK
EC50 (read off the curve) [1]: ~100 ng/mL

B4: CD137 MAB-1 (antibody, V domains shown)
VH: QVQLQQWGAGLLKPSETLSLTCAVYGGSFSGYYWSWIRQSPEKGLEWIGEINHGGYVTYNPSLESRVTISVDTSKNQFSLKLSSVTAADTAVYYCARDYGPGNYDWYFDLWGRGTLVTVSS
VL: EIVLTQSPATLSLSPGERATLSCRASQSVSSYLAWYQQKPGQAPRLLIYDASNRATGIPARFSGSGSGTDFTLTISSLEPEDFAVYYCQQRSNWPPALTFGGGTKVEIK
notes: also called urelumab; BMS-663513
EC50 (read off the curve) [1]: ~5 ng/mL

B5: TRIDENT-1 (bispecific antibody, human IgG1, kappa, L234A L235A)
chain 1: DIQMTQSPSSLSASVGDRVTITCRPSQDISNYLNWYQQKPDKTVKLLIYYTSRLRSGVPSRFSGSGSGTDFTFTISSLQPEDIATYFCQQGDTLPYTFGQGTKLEIKGGGSGGGGQVQLVQSGAEVKKPGASVKVSCKASGYTFTSYWINWVKQAPGQGLEWIGNIYPSDSYTNYNQKFKDKATITADKSTSTAYMELSSLRSEDTAVYYCTRDYGSAYSMSTWGQGTTVTVSSASTKGEVAACEKEVAALEKEVAALEKEVAALEKGGGDKTHTCPPCPAPEAAGGPSVFLFPPKPKDTLMISRTPEVTCVVVDVSHEDPEVKFNWYVDGVEVHNAKTKPREEQYNSTYRVVSVLTVLHQDWLNGKEYKCKVSNKALPAPIEKTISKAKGQPREPQVYTLPPSREEMTKNQVSLWCLVKGFYPSDIAVEWESNGQPENNYKTTPPVLDSDGSFFLYSKLTVDKSRWQQGNVFSCSVMHEALHNHYTQKSLSLSPGK
chain 2: DIQMTQSPSSLSASVGDRVTITCRPSQDISNYLNWYQQKPDKTVKLLIYYTSRLRSGVPSRFSGSGSGTDFTFTISSLQPEDIATYFCQQGDTLPYTFGQGTKLEIKGGGSGGGGQVQLVQSGAEVKKPGASVKVSCKASGYTFTSYWINWVKQAPGQGLEWIGNIYPSDSYTNYNQKFKDKATITADKSTSTAYMELSSLRSEDTAVYYCTRDYGSAYSMSTWGQGTTVTVSSASTKGKVAACKEKVAALKEKVAALKEKVAALKE
heavy: QVTLRESGPALVKPTQTLTLTCTFSGFSLSTSGMSVGWIRQPPGKALEWLADIWWDDKKDYNPSLKSRLTISKDTSKNQVVLKVTNMDPADTATYYCARSMITNWYFDVWGAGTTVTVSSASTKGPSVFPLAPSSKSTSGGTAALGCLVKDYFPEPVTVSWNSGALTSGVHTFPAVLQSSGLYSLSSVVTVPSSSLGTQTYICNVNHKPSNTKVDKRVEPKSCDKTHTCPPCPAPEAAGGPSVFLFPPKPKDTLMISRTPEVTCVVVDVSHEDPEVKFNWYVDGVEVHNAKTKPREEQYNSTYRVVSVLTVLHQDWLNGKEYKCKVSNKALPAPIEKTISKAKGQPREPQVYTLPPSREEMTKNQVSLSCAVKGFYPSDIAVEWESNGQPENNYKTTPPVLDSDGSFFLVSKLTVDKSRWQQGNVFSCSVMHEALHNRYTQKSLSLSPGK
light: DIQMTQSPSTLSASVGDRVTITCRASQSVGYMHWYQQKPGKAPKLLIYDTSKLASGVPSRFSGSGSGTEFTLTISSLQPDDFATYYCFQGSGYPFTFGGGTKLEIKRTVAAPSVFIFPPSDEQLKSGTASVVCLLNNFYPREAKVQWKVDNALQSGNSQESVTEQDSKDSTYSLSSTLTLSKADYEKHKVYACEVTHQGLSSPVTKSFNRGEC
notes: also called CD137×CD137×RSV control molecule; CD137×RSV control molecule
EC50 (read off the curve) [3]: ~0.03 nM
EC50 (read off the curve) [4]: ~7 ng/mL
EC50 (read off the curve) [5]: ~0.03 nM
binding result [6]: no binding (tested: about 60 nM (last point))
binding result [7]: no binding (tested: 10 ug/mL)
